Results from the supplement of paper PMC9170038.

How the values were obtained:
MS2 coat protein [1] = assay: apparent KD of MS2 coat protein, switch ON state; designed switch direction (-1 OFF switch, 1 ON switch): -1; higher = weaker reporter binding; settings: FMN input: 0 or 200 uM; Eterna round: R93 (includes R88 designs)
How it was run: (§1)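 Each design's apparent KD comes from the median of binding-curve fits to its normalised clusters. Those clusters carried RNA switches transcribed on-chip from Illumina sequencing clusters. SNAP-549-labelled MS2 coat protein was titrated onto them in twofold steps (0.7 or 1.5 nM to 3 µM; per step 0.8–1.5 h down to 10–20 min). Conditions were 100 mM Tris-HCl pH 7.5, 80 mM KCl, 4 mM MgCl2, without or with constant ligand.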

MS2 coat protein [2] = assay: apparent KD of MS2 coat protein, switch OFF state (with FMN for OFF switches, without FMN for ON switches); designed switch direction (-1 OFF switch, 1 ON switch): -1; higher = weaker reporter binding; settings: FMN input: 0 or 200 uM; Eterna round: R93 (includes R88 designs)
How it was run: as §1

Sequence | apparent KD of MS2 coat protein (MS2 coat protein [1]) [nM] | apparent KD of MS2 coat protein (MS2 coat protein [2]) [nM]
AACAUGUAAGGAUAUGCUGCUCGUCACAAAAGUGAUGAGUAGCAGAAGGUACAUGAGGAUCACCCAUGUAAAGA [JL eternac mod 14] | 50.6 | 111
AACUGGGCAGGAUAUACAUGAGGAUCACCCAUGUAAAGAAAAGAAAGAUCCGAAGAAAGUAGAAGGGCCUGGAA [Variant 3 of Mod 1 of Ex3 sub 3, by Tesla's Dusciple Round 1] | 98 | 126
AAAGGACGAGGAUAUACAUGAGGAUCACCCAUGUAAAAAGCGUAGCAAAAGAGCUUAUGUAGAAGGCGUCCAAA [Meechl Ex3 2 R2 v4] | 20 | 49.3
CAAAACAAAGGAUAUAAAACAGAGGAUAUACAUAAAUAAAAACAUGAGGAUCACCCAUGUAGAAGGCUGAAAAC [Meechl Ex2 R2 m3] | 21.9 | 23
AACAGUACAGGAUAUACAUGAGGAUCACCCAUGUGAGAAAUAAGUGGCGUACCACAAAGUAGAAGGGUACUGGA [Mat - Exclusion 3 - JL mod - D21] | 32.6 | 150
UAAAAGGUAGGAUAUACUUGGAAGACCUGCCAACAAUAACAACAUGAGGAUCACCCAUGUAGAAGGACCAAUAU [Edtiatlema] | 23.2 | 19.5
AAAACGGUAGGAUAUACGAUUUGGAACUAGACCGAGGAACCACAUGAGGAUCACCCAUGUAGAAGGACCAAAAA [EX2 Malc#18] | 11.9 | 10.7
AAGAAGCGAGGAUAUACAAAAUAAAAGAAAAGAAAGAAAGAACAUGAGGAUCACCCAUGUAGAAGGCGUAAGAA [Sankhenre Sewadjtu] | 13.3 | 11.1
AUAAACUGAGGAUAUACAUGAGGAUCACCCAUGUAAAAAAAAAAAAGUUCCUCAAAAAGUAGAAGGCAGAAUAA [JR_Exc003_Sub013] | 13.2 | 19.4
UCCUGACAUGAGGAUCACCCAUGUCAGGAUAUCUACAGAACCUCAUGUAAAAAACUGUAGAGAAGGGAUAUGGG [Design 98: Pseudoknot H] | 16.9 | 17.5
AAAAAGGCAGGAUAUACAUGAGGAUCACCCAUGUAAAGAAAGAAAGAAGAAAGGGAAAGUAGAAGGGCCAAAAA [Ex3 sub 1] | 34.4 | 41.2
AAAAAGGGAGGAUAUACAUGAGGAUCACCCAUGUAAAAAAUCGCGGGAGGGAGGGAAGGUAGAAGGCCCAAAAA [Excls3-V] | 20.1 | 15.5
UCCGAACAUGAGGAUCACCCAUGUCAGGAUAUACACCCAGCAUGGAAGCCAUGCUCAAGUAGAAGGGACGGGUG [Inxeus] | 34.9 | 34.9
AGUCAUACAGGAUAUACAUGAGGAUCACCCAUGUUUAUCCUAAAAAGGUGAUCCUCAUGUAGAAGGGUAUGACA [EX3 210: Super Stable 10] | 12.4 | 16.6
AAAACGGUAGGAUAUACAAUUGGGAACUAGACCGAAAAACCACAUGAGGAUCACCCAUGUAGAAGGGCCAAAAA [Ex2 Malc#12] | 39.2 | 77.6
AAGAGUAGAGGAUAUACAUGAGGAUCACCCAUGUAAUCCAGAUAAGGAAGCAUGUCGUGUAGAAGGCUGCAUGA [MOD 2 of Nando (MS2 Riboswitches- Exclusion 3)] | 15.9 | 14.4
GGGUCACAUGAGGAUCACCCAUGUAAGGAUAUGCUAGGGAUGGAAGCCAGGCCGCAACGCAGAAGGUACUAAAG [Janelle Amethyst 18 Mod 14 - Jieux - Exclusion 1] | 55.1 | 54.7
AGUUGGCGAGGAUAUACAUGAGGAUCACCCAUGUGAGAAAAAAAAGUGAGAAAGAAAAGUAGAAGGCGCUGACA [Mat - Exclusion 3 - Lego mod - D88] | 54.6 | 314
AGGAAACAUGAGGAUCACCCAUGUGAGGAUAUCAGAAAGAAAAGAAAAGAAAGAAGAAUGAGAAGGCACAAGAA [Hotepsekhemwy] | 26 | 40.8
AAGAAGUCAGGAUAUGCCAGAGAUCAAGAAAGUGACGAGUAGCAGAAGGGACAUGAGGAUCACCCAUGUAAAGA [Opal 8] | 45.9 | 36.9
AACAGUACAGGAUAUACAUGAGGAUCACCCAUGUGAAAUAAAAGUGGCGUACCACAAAGUAGAAGGGUACUGGA [Mat - Exclusion 3 - JL mod - D22] | 27.3 | 119
ACCUGACAUGAGGAUCACCCAUGUGAGGAUAUGUACAUCAGGAAAAAAAAACUGAUGUACAGAAGGCACAAGGG [Amethyst 49] | 23.1 | 38.7
AAAAAACAUGAGGAUCACCCAUGUGAGGAUAUGUACGAAAAUAAAUAAAAAUAAAAGUACAGAAGGCACAAAAA [66%, Wbt, 2] | 35.7 | 41.2

Sequence | apparent KD of MS2 coat protein (MS2 coat protein [1]) [nM] | apparent KD of MS2 coat protein (MS2 coat protein [2]) [nM]
AAAAAACAUGAGGAUCACCCAUGUGAGGAUAUCGAAAAAAAAAUAAAAAUAAAACAUACGAGAAGGCACACCAA [Amethyst 59] | 30.5 | 35.7
AAAAAGUGAGGAUAUACGCUGAAGAGAAGACACAACCAGGCGUAGAAGGCACAUGAGGAUCACCCAUGUACAAA [Ex4 Malc#8] | 28.2 | 27.3
AAAAAGUUAGGAUAUACAUGAGGAUCACCCAUGUGCACGUAUGGAGAAUAUGGUGGUAGUAGAAGGGACAAAAA [EX2 Malc#18] | 55.3 | 66.6
AAAUUGUCAGGAUAUCGUAGAAUAGUGAAAAACUAGAGCUACGAGAAGGGACAUGAGGAUCACCCAUGUAAAAC [May 92] | 43.3 | 54.4
AAAAAGCGAGGAUAUACAUGAGGAUCACCCAUGUAAAAAAAAAAAAAGGGAAAAAAAAGUAGAAGGCGCAAAAA [Sekhemraneferkhau Wepwawetemsaf] | 43.2 | 48.7
AAAACUGGAGGAUAUACAUGAGGAUCACCCAUGUGUGGAUGAGCUGUGUCGGCAUCACGUAGAAGGCCACAAAA [Gilly Gone Silly 38 - Jieux - Exclusion 3] | 34.4 | 53.3
AAAUUGUCAGGAUAUGUAGCAAAAGGUGAUCAAAAAAAGCUACAGAAGGGACAUGAGGAUCACCCAUGUAAAAA [Ex4: 936] | 242 | 359
AAAAAGGGAGGAUAUACAUGAGGAUCACCCAUGUAAAACAAAAAAACAAAAAAAAAAAGUAGAAGGCCCAAAAA [Default title] | 30 | 24.6
AAGAAUGAAGGAUAUACAUGAGGAUCACCCAUGUAAAAGAAAGAGGGAAAAGAGAAAAGUAGAAGGUCAAAGAA [Ptolemy XI Alexander II] | 19.8 | 20.4
GAUCCACAUGAGGAUCACCCAUGUAAGGAUAUUUAAAACCGGAGGAAACCCUCCGAAGAAAGAAGGUACAAAAC [Atceabi] | 14.6 | 14.5
AAGAAGCAAGGAUAUACAUGAAAGAAAGAAAAGAAAAGAAAACAUGAGGAUCACCCAUGUAGAAGGUGCUAGAA [EteRNA is fun!] | 34.6 | 47.8
AAAACAAAAGGAUAUAAAAACAAAAGUCAGGAUAUAGGAAACUAGAAGGGACAUGAGGAUCACCCAUGUAAAAC [Meechl Ex4 R2 m3] | 55.9 | 44.5
AAAACGGCAGGAUAUACAGUUGAGAACUAGACCGAAAAAAAACAUGAGGAUCACCCAUGUAGAAGGGCCAAAAA [Ex2 Malc#8] | 28.4 | 32.5
AAUAACAGAGGAUAUGCGAAAAUAAGCGGAAACGCAAAGGGACAUGAGGAUCACCCAUGUAGAAGGCUGGAUAA [Tetraloop... 61% 1] | 34.4 | 29.5
GUGUACAGAGGAUAUACAUGAGCAUGGAAUCAUGCAGGAUCACAUGAGGAUCACCCAUGUAGAAGGCUGUACAC [LROPPY Exclusion 2 - v06_mod Brourd] | 66.9 | 39.8
AAGAAGUCAGGAUAUACAUGAGGAUCACCCAUGUAAAAGAAAGAGGGAAAAGAGAAAAGUAGAAGGGACAAGAA [Arsinoe I] | 29.1 | 32.1
AGGAAACAUGAGGAUCACCCAUGUAAGGAUAUGAGAAAGAAAAGAAAAGAAAGAAGAAUCAGAAGGUACAAGAA [Semerkhet] | 34.4 | 89.2
AUCGAUCGAGGAUAUACAUGAGGAUCACCCAUGUAAAAAAAAAAAAAGGCCUCAGGAUGUAGAAGGCGACGCAA [JR_Exc003_Sub403] | 18.5 | 18.7
AAGACUAGAGGAUAUACAUGAGGAUCACCCAUGUAACUGUCAGGAAACUGACGGAGAUGUAGAAGGCUAGUCAA [Mat - Exclusion 3 - Neo mod - D75] | 16.7 | 38.4
AAAAAGUAAGGAUAUCUGGAUAGGAAAAAGAAAACCUAUCCAGAGAAGGUACAUGAGGAUCACCCAUGUAAAAA [Opal 30] | 20.8 | 14.1
AAAAAUGGAGGAUAUACAUGAGGAUCACCCAUGUGAAACAAAACAAAAAACAAAAAAAGUAGAAGGCCAAAAAA [Gilly Gone Silly 3 - Jieux - Exclusion 3] | 31.2 | 40.1
ACCUCACAUGAGGAUCACCCAUGUUAGGAUAUGCCCGGCAGGUUCUGACCUGCCUAAAGCAGAAGGAACGUGCG [Beusus] | 17.4 | 57.9
